The target of the data set is CsrA (6xHis-CsrA) (UniProt A0A2I3CA03 1-65). Kind of data set: EMSA; high affinity. The conditions noted are these: protein: recombinant; tags: 6xHis (named 6xHis-CsrA); chain copies: 2; label: biotin.

Consider one molecule from paper PMC12298160, “Integrated Transcriptomic and Proteomic Analyses Reveal CsrA-Mediated Regulation of Virulence and Metabolism in Vibrio alginolyticus”.

B1: rraA -64 to +36 RNA (ssRNA)
RNA: AAGGUAUAGAAAAGGAUACUGCUCACUGAAGCAACGCUUGGGUGAGAAAAUUCACGGAGGAAAUAUGAGAGACAUUACACCCGAUAUUUGUGACCAAUUU
As for B1, the binding result is listed as “binds”.
